Source: US20250152742A1, “COMPOSITIONS AND METHODS FOR NEUROLOGICAL DISEASES” (Trames Bio, Inc., priority 2022, published 2025)

Tested on: engineered chimeric receptor SEQ ID NO: 33 and its mutants (human α7-nAChR ligand binding domain / human GlyRα1 ion pore domain) in Lenti-X 293T cells
Assay: YFP fluorescence quenching anion reporter plate reader assay (percent quench, EC50)
Type: cell-based
Details: for YFP fluorescence quenching using CNL001 (percent quench): receptor named in row; for YFP fluorescence quenching using Varenicline, 3 nM var: ligand Varenicline 3 nM; for YFP fluorescence quenching using Varenicline, 30 nM var: ligand Varenicline 30 nM; for YFP fluorescence quenching using Varenicline, 300 nM var: ligand Varenicline 300 nM; for YFP fluorescence quenching using Varenicline, 500 nM var: ligand Varenicline 500 nM; for YFP fluorescence quenching using Varenicline, 1 uM var: ligand Varenicline 1 uM
Summary of the method: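 Lenti-X 293T cells co-expressing an anion-quenchable YFP were transiently transfected with receptor DNA, then ligand was added in NaI-substituted buffer (pH 7.2) after 30 min at 37 °C. Fluorescence was read about 2 min; percent quench = mean of last 10 s over 15 s pre-ligand baseline.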

B1: CODA330: engineered receptor: L131F in SEQ ID NO: 33 (protein)
chain: MRCSPGGVWLALAASLLHVSLQGEFQRKLYKELVKNYNPLERPVANDSQPLTVYFSLSLLQIMDVDEKNQVLTTNIWLQMSWTDHYLQWNVSEYPGVKTVRFPDGQIWKPDILLYNSADERFDATFHTNVFVNSSGHCQYLPPGIFKSSCPMDLKNFPMDVQTCKLKFGSWSYGGWSLDLQMQEADISGYIPNGEWDLVGIPGKRSERFYECCKEPYPDVTFTVTMRRRMGYYLIQMYIPSLLIVILSWISFWINMDAAPARVGLGITTVLTMTTQSSGSRASLPKVSYVKAIDIWMAVCLLFVFSALLEYAAVNFVSRQHKELLRFRRKRRHHKSPMLNLFQEDEAGEGRFNFSAYGMGPACLQAKDGISVKGANNSNTTNPPPAPSKSPEEMRKLFIQRAKKIDKISRIGFPMAFLIFNMFYWIIYKIVRREDVHNQ
modifications: synthetic sequence of chimeric LGIC
- YFP fluorescence quenching using CNL001 (percent quench) (1 nM CNL001, first column so headed): 76.289%
- YFP fluorescence quenching using CNL001 (percent quench) (1 nM CNL001, second column so headed): 78.896%
- YFP fluorescence quenching using TC-5619/Bradanicline (percent quench) (1 nM brd (TC-5619/Bradanicline)): −12.4%
- YFP fluorescence quenching using TC-5619/Bradanicline (percent quench) (3 nM brd (TC-5619/Bradanicline)): 25.12%
- YFP fluorescence quenching using CNL001 (percent quench) (10 nM CNL001, first column so headed): 79.339%
- YFP fluorescence quenching using CNL001 (percent quench) (10 nM CNL001, second column so headed): 80.245%
- YFP fluorescence quenching using TC-5619/Bradanicline (percent quench) (10 nM brd (TC-5619/Bradanicline)): 72.19%
- YFP fluorescence quenching using TC-6683 (percent quench) (30 nM TC-6683): −22.26%
- YFP fluorescence quenching using TC-5619/Bradanicline (percent quench) (30 nM brd (TC-5619/Bradanicline)): 76.35%
- YFP fluorescence quenching using CNL001 (percent quench) (50 nM CNL001, first column so headed): 80.831%
- YFP fluorescence quenching using CNL001 (percent quench) (50 nM CNL001, second column so headed): 80.605%
- YFP fluorescence quenching using ABT-126 (percent quench) (50 nM abt (ABT-126)): −16.22%
- YFP fluorescence quenching using CNL001 (percent quench) (100 nM CNL001, first column so headed): 81%
- YFP fluorescence quenching using CNL001 (percent quench) (100 nM CNL001, second column so headed): 80.663%
- YFP fluorescence quenching (percent quench) (100 nM CNL002): −3.76%
- YFP fluorescence quenching using ABT-126 (percent quench) (100 nM abt (ABT-126)): −11.89%
- YFP fluorescence quenching using AZD-0328 (percent quench) (100 nM azd0328): 27.56%
- YFP fluorescence quenching using TC-5619/Bradanicline (percent quench) (100 nM brd (TC-5619/Bradanicline)): 78.94%
- YFP fluorescence quenching using TC-6683 (percent quench) (300 nM TC-6683): −18.89%
- YFP fluorescence quenching using ABT-126 (percent quench) (300 nM abt (ABT-126)): 39.23%
- YFP fluorescence quenching using AZD-0328 (percent quench) (300 nM azd0328): 73.35%
- YFP fluorescence quenching using TC-5619/Bradanicline (percent quench) (300 nM brd (TC-5619/Bradanicline)): 77.06%
- YFP fluorescence quenching using CNL001 (percent quench) (1 uM CNL001, first column so headed): 81.293%
- YFP fluorescence quenching using CNL001 (percent quench) (1 uM CNL001, second column so headed): 81.428%
- YFP fluorescence quenching (percent quench) (1 uM CNL002): 68.51%
- YFP fluorescence quenching using ABT-126 (percent quench) (1 uM abt (ABT-126)): 66.5%
- YFP fluorescence quenching using TC-5619/Bradanicline (percent quench) (1 uM brd (TC-5619/Bradanicline)): 78.61%
- YFP fluorescence quenching using TC-6683 (percent quench) (3 uM TC-6683): −9.45%
- YFP fluorescence quenching (percent quench) (10 uM ach (acetylcholine)): 11.07%
- YFP fluorescence quenching (percent quench) (30 uM CNL002): 77.77%
- YFP fluorescence quenching using TC-6683 (percent quench) (30 uM TC-6683): −9.23%
- YFP fluorescence quenching using AZD-0328 (percent quench) (30 uM azd0328): 77.14%
- YFP fluorescence quenching using TC-6683 (percent quench) (100 uM TC-6683): −10.75%
- YFP fluorescence quenching (percent quench) (100 uM ach (acetylcholine)): 43.34%
- YFP fluorescence quenching (percent quench) (1 mM ach (acetylcholine)): 77.52%
- YFP fluorescence quenching (percent quench) (3 mM ach (acetylcholine)): 74.89%
- YFP fluorescence quenching using Facinicline, 30 nM fac (ligand Facinicline 30 nM): 2.9
- YFP fluorescence quenching using Facinicline, 300 nM fac (ligand Facinicline 300 nM): 74.96
- YFP fluorescence quenching using Facinicline, 10 uM fac (ligand Facinicline 10 uM): 81.97
- YFP fluorescence quenching using Facinicline, 30 uM fac (ligand Facinicline 30 uM): 78.31
- YFP fluorescence quenching using TC-6987, 1 uM tc6987 (ligand TC-6987 1 uM): 53.37
- YFP fluorescence quenching using TC-6987, 10 uM tc6987 (ligand TC-6987 10 uM): 74.23
- YFP fluorescence quenching using TC-6987, 500 uM tc6987 (ligand TC-6987 500 uM): 72.25
- YFP fluorescence quenching using Varenicline, 3 nM var (first column): −3.016
- YFP fluorescence quenching using Varenicline, 3 nM var (second column): −1.452
- YFP fluorescence quenching using Varenicline, 30 nM var (first column): −0.193
- YFP fluorescence quenching using Varenicline, 30 nM var (second column): −1.853
- YFP fluorescence quenching using Varenicline, 300 nM var (first column): 6.915
- YFP fluorescence quenching using Varenicline, 300 nM var (second column): 6.513
- YFP fluorescence quenching using Varenicline, 500 nM var (first column): 27.593
- YFP fluorescence quenching using Varenicline, 500 nM var (second column): 29.863
- YFP fluorescence quenching using Varenicline, 1 uM var (first column): 67.499
- YFP fluorescence quenching using Varenicline, 1 uM var (second column): 65.57
